Values belong to the binder of their own block, whether it stands above or below them.
Tests used:
[1] = target: T1, Recombinant human QSOX1 (HsQSOX1 33-546) (human, UniProt O00391 33-546, bound FAD cofactor); assay: cell-based or functional assay
T1 sequence: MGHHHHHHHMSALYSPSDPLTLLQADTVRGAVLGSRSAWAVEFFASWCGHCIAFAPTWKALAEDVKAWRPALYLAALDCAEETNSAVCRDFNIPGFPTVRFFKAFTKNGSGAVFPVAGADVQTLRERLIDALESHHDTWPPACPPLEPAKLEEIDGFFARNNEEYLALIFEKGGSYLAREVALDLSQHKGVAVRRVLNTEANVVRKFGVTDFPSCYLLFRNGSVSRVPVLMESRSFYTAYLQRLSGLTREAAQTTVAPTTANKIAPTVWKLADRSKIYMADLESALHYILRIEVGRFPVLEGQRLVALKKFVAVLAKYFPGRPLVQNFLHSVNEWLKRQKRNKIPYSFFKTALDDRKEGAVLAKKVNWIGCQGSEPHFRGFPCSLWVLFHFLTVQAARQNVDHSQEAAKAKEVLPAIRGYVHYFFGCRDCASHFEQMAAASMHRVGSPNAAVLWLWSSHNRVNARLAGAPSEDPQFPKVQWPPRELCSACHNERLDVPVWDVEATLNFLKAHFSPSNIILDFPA

[2] = target: T1, Recombinant human QSOX1 (HsQSOX1 33-546); assay: calculated from the IC50 of the rdRNase oxidation colorimetric assay with the equation for competitive inhibition
[3] = target: T2, HsQSOX1Erv (carboxy-terminal fragment of human QSOX1, psi-Erv and Erv domains) (human, UniProt O00391 286-546, limits assumed, bound FAD cofactor); assay: ELISA
T2 construct: domain: carboxy-terminal fragment, HsQSOX1Erv (two Erv-fold domains); also called HsQSOX1 carboxy-terminal fragment
T2 sequence (looked up): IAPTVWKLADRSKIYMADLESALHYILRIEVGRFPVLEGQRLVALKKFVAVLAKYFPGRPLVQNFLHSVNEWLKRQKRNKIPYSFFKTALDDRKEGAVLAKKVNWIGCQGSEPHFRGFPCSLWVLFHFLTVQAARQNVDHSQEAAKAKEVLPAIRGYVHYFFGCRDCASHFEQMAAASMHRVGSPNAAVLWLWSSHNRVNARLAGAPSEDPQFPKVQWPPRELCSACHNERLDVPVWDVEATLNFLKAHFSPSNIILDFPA

[4] = target: T1, Recombinant human QSOX1 (HsQSOX1 33-546); assay: oxygen consumption assay, 25 nM HsQSOX1, 1-250 nM MAb492.1, 200 µM DTT, fit to a tight-binding inhibitor model

IC50, inhibition of rdRNase oxidation (DTNB colorimetric assay), 50 nM HsQSOX1 [1]: 250 nM
Ki [2]: 130 nM
B1: scFv492.1 (scFv)
scFv: QVQLKQSGPGLVAPSQSLSITCTVSGFSLTGYGVNWVRQSPGKGLEWLGMIWGDGRTDYKSALKSRLSITKDNSKSQVFLKMNSLQTDDTARYFCASDYYGSGSFAYWGQGTLVTVSAGGGGSGGGGSGGGGSDVVMTQTHKFMSTSVGDRVSITCKASQDVSTAVAWYQQKSGQSPKLLIHSASYRYTGVPDRFTGSGSGTDFTFTISSVQAEDLAVYYCQQHYSIPLTFGAGTKLELK
notes: also called single chain antibody fragment of MAb492.1; not shown: thrombin-cleavable His6-tag at the amino terminus

binding result [3]: no binding
IC50, inhibition of rdRNase oxidation (DTNB colorimetric assay), 50 nM HsQSOX1 [1]: 60 nM
IC50, inhibition of rdRNase oxidation (DTNB colorimetric assay), 250 nM HsQSOX1 [1]: 240 nM
Ki [4]: 1 nM
B2: MAb492.1 (antibody, V domains shown)
VH: QVQLKQSGPGLVAPSQSLSITCTVSGFSLTGYGVNWVRQSPGKGLEWLGMIWGDGRTDYKSALKSRLSITKDNSKSQVFLKMNSLQTDDTARYFCASDYYGSGSFAYWGQGTLVTVSA
VL: DVVMTQTHKFMSTSVGDRVSITCKASQDVSTAVAWYQQKSGQSPKLLIHSASYRYTGVPDRFTGSGSGTDFTFTISSVQAEDLAVYYCQQHYSIPLTFGAGTKLELK
notes: also called anti-QSOX1 monoclonal antibody; QSOX1-specific monoclonal antibody

IC50, inhibition of rdRNase oxidation (DTNB colorimetric assay), 50 nM HsQSOX1 [1]: 100 nM
B3: Fab492.1 (Fab fragment of MAb492.1) (Fab, V domains shown)
VH: B2 VH
VL: B2 VL

— patent US20150110786A1 (YEDA RESEARCH AND DEVELOPMENT, published 2015)
